Laboratory results from patent US20190151401A1 (UNIVERSITY OF BRITISH COLUMBIA, published 2019).
Each block holds one binder with its values, some of them ahead of it.

Experiments:
[1] = biological target: T1, cyclo(CGHHQKG) conjugated to BSA (also: conjugated to BSA); experiment: ELISA and SPR on peptide-BSA conjugates
T1 construct: HHQK are A-beta residues 13-16; C and G residues are linker; BSA carrier is not written as a chain; also called Cyclo-BSA
T1 peptide: cyclo(CGHHQKG)

[2] = biological target: T2, cyclo(CGQKLVG) conjugated to BSA (also: conjugated to BSA); experiment: ELISA and SPR on peptide-BSA conjugates
T2 construct: BSA carrier is not written as a chain
T2 peptide: cyclo(CGQKLVG)

[3] = biological target: T3, A-beta42 oligomers (synthetic, commercially prepared, SynAging SAS) (human); experiment: cell-based or functional assay
[4] = biological target: T4, cyclo(CGHDSGG) conjugated to BSA (also: conjugated to BSA); experiment: ELISA and SPR on peptide-BSA conjugates
T4 construct: BSA carrier is not written as a chain
T4 peptide: cyclo(CGHDSGG)

[5] = biological target: T3, A-beta42 oligomers (synthetic, …); experiment: ProteOn biosensor, antibody captured or amine-coupled on GLM chip, AbO 12.3 nM to 1 uM; approximate kinetic value
[6] = biological target: T1, cyclo(CGHHQKG) conjugated to BSA; experiment: ProteOn biosensor, antibody amine-coupled on GLH chip, cyclo-BSA 111 pM to 9 nM
Protocol: Cyclo-BSA 3-fold dilutions were used from 9 nM to 111 pM. Assay buffer was PBS-E+0.05% Tween+10 mg/ml BSA.

T3 sequence (peptide, as listed by the source): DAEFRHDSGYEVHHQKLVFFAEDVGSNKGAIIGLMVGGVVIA

binding result [1]: binds
B1: antibody 301-11 (IgG3, kappa), raised against cyclo(CGHHQKG) (antibody, V domains shown)
VH: EVQLVESGGGLVKPGGSLKLSCAASGFTFSDYYMYWVRQTPEKRLEWVATISDGGSYTSYPDSVKGRFTISRDNAKNNLYLQMSSLRSEDTAMYYCARDYYGSSSYTSGFAYWGQGTLVTVSA
VL: DIVMSQSPSSLAVSTGEKVTMSCKSSQSLLNSRTRKNYLAWYQQKPGQSPKLLIYWASTRESGVPDRFTGSGSGTDFTLTISSVQAEDLAVYYCKQSYNLYTFGGGTKLEIK
notes: Mouse IgG3/kappa; Entries as printed include the leader peptide

binding result [2]: binds
B2: antibody 305-62 (IgG1, kappa), raised against cyclo(CGQKLVG) (antibody, V domains shown)
VH: QVTLKESGPGILKPSQTLSLTCSFSGFSLSTSGMGVGWIRQPSGKGLEWLAHIWWDDDKYYNPSLKSQLTISKDTSRNQVFLKITSVDTADTATYYCARSITTVVATPFDYWGQGTTLTVSS
VL: DIVMTQSQKFMSTSVGDRVSITCKASQNVRSAVAWYQQKPGQSPKALIYLASNRHTGVPDRFTGSGSGTDFTLTISNVHSEDLTDYFCLQHWNSPFTFGGGTKLEIKR
notes: Mouse IgG1/kappa; Entries as printed include the leader peptide and a few constant-region residues

binding result [4]: binds
B3: antibody 303-25, raised against cyclo(CGHDSGG) (antibody, V domains shown)
VH: QVQLQQPGAELVRPGASVKLSCKASGYTFTSYWMNWVKQRPGQGLEWIGMIDPSDSQTHYNQMFKDKATLTVDKSSSTAYLQLSSLTSEDSAVYYCSRGGYWGQGTTLTVSS
VL: DIQMTQSPSSLSASLGGKVTITCKASQDINNYIAWYQHKPGKGPRQLIYYTSTLQPGIPSRFSGSGSGRDYSFTISDLEPEDIATYYCLQYDNLWTFGGGTKLEIK
notes: Mouse, kappa; Entries as printed include the leader peptide
remaining cell viability at a molar ratio of 1:2 (AβO:AB1) [3]: 88.8 % of control

binding result [2]: binds
B4: antibody 305-61 (IgG3, kappa), raised against cyclo(CGQKLVG) (antibody, V domains shown)
VH: QVQLQQSGAELVRPGASVTLSCKASGYTFTDYEMHWVKQTPVHGLEWIGAIDPETGDTAYNQEFKGKATLTADKSSSTAYMELRSLTSEDSAVYYCTSPIYYDYDWFAYWGHGTLVTVSA
VL: DIVMSQSPSSLAVSAGEKVTMSCKSSQSLLNNRTRKNYLAWYQQKPGQSPKLLIYWASTRESGVPDRFTGSGSGTDFTLTISSVQAEDLAVYYCKQSYNLRTFGGGTKLEIKR
notes: Mouse IgG3/kappa; Entries as printed include the leader peptide and a few constant-region residues; also called 7E9.1
remaining cell viability at a molar ratio of 1:2 (AβO:AB1) [3]: 80.1 % of control

Kd [5]: ~26.9 nM
B5: antibody 301-17 (hybridoma-purified, IgG3, kappa), raised against cyclo(CGHHQKG) (antibody, V domains shown)
VH: QVQLQQPGAELVKPGASVKMSCKASGYSFTSYWINWVKQRPGQGLEWIGDVHPGRGVSTYNAKFKSKATLTLDTSSSTAYMQLSSLTSEDSAVYYCSRSHGNTYWFFDVWGAGTTVTVSS
VL: DVLMTQTPLSLPVSLGDQASISCRSSQSIVHSNGNTYLEWYLQKPGQSPKLLIYKVSNRFSGVPDRFSGSGSGTDFTLKISRVEAEDLGVYYCFQGSHVPFTFGSGTKLEIKR
notes: Mouse IgG3/kappa

Kd [5]: 16.2 to 19.5 nM | Kd [6]: ~0.017 nM
B6: recombinant 301-17 IgG2a (antibody, V domains shown)
VH: QVQLQQPGAELVKPGASVKMSCKASGYSFTSYWINWVKQRPGQGLEWIGDVHPGRGVSTYNAKFKSKATLTLDTSSSTAYMQLSSLTSEDSAVYYCSRSHGNTYWFFDVWGAGTTVTVSS
VL: DVLMTQTPLSLPVSLGDQASISCRSSQSIVHSNGNTYLEWYLQKPGQSPKLLIYKVSNRFSGVPDRFSGSGSGTDFTLKISRVEAEDLGVYYCFQGSHVPFTFGSGTKLEIKR

binding result [2]: binds
B7: antibody 305-59 (IgG1, kappa), raised against cyclo(CGQKLVG) (antibody, V domains shown)
VH: EVQLQQSGAELVKPGASVKLSCTVSGFNIKDTYVHWVKQRPEQGLEWIGRIAPASGNTKYAPNFQDKATITADTSSNTAYLQLNSLTSEDTAVYYCARHVYWGQGTLVTVSA
VL: SIVMTQTPKFLLVSAGDRVTITCKASQSVSNDVVWYQQKPGQSPKLLIYYASNRYTGVPDRFTGSGYGTDFTFTISTVQAEDLAVYFCQQDYISPYTFGGGTKLEIK
notes: Mouse IgG1/kappa; Entries as printed include the leader peptide; also called 59 (5G1)
